In patent US20190060405A1:

Target: rat CSF1-R (CD115) expressed on pDCs (rat) (UniProt Q00495)
Test: cell-based or functional assay

Sequence of UniProt Q00495 (Q00495 20-978): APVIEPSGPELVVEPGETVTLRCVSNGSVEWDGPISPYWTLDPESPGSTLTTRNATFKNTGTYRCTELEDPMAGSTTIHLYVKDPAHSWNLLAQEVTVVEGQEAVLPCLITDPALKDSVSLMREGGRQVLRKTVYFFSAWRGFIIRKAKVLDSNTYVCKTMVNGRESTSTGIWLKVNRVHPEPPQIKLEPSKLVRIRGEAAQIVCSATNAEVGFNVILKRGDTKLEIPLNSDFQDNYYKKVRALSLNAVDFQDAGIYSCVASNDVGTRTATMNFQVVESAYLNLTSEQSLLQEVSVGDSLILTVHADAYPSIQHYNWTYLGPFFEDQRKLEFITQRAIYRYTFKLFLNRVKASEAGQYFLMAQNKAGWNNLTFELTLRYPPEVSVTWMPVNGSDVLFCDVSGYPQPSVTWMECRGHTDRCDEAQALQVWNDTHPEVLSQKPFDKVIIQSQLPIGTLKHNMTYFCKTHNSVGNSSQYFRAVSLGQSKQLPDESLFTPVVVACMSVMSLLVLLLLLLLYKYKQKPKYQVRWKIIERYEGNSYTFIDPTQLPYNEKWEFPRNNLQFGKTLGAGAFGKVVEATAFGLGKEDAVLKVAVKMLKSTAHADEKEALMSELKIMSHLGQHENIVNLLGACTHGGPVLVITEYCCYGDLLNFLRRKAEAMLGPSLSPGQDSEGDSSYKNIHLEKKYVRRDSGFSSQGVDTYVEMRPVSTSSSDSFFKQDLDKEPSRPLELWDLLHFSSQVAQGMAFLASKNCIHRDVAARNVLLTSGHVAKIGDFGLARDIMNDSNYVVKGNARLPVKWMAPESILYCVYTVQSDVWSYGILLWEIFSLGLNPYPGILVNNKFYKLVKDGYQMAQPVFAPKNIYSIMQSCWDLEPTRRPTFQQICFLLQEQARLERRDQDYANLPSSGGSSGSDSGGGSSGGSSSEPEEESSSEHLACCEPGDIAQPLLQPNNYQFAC

## Rat M-CSF protein (ab56288, ABCAM) (from UniProt Q8JZQ0 33-187) (ligand)
  suppression of CD4+CD25- T cells proliferation (MLR, CFSE): 93.5%
